The text below walks through data of paper PMC6405950, “Structure-function relationship of a citrus salicylate methylesterase and role of salicylic acid in citrus canker resistance” (Scientific Reports, 2019).

The target of one data set is T1, CsMES1 (Citrus sinensis, UniProt A0A067GV78).
T1 construct: gene CISIN_1g024065mg; recombinant CsMES1 (KDO79352) from pET28a in E. coli
T1 sequence (A0A067GV78 1-267): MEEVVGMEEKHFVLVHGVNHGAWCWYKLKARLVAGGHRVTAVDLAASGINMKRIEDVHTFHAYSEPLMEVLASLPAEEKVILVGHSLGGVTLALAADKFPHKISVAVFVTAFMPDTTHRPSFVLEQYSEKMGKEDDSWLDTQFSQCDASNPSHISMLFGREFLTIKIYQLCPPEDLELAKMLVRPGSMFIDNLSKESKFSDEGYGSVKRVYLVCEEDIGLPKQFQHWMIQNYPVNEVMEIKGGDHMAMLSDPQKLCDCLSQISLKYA
Briefly: ITC; also esterase inhibition (IC50 […] at […] MeSA). The data set is classed as binding. On the technique in general: Isothermal titration calorimetry measures the heat released or taken up as one component is titrated into another.

Another data set has as its target T2, CsMES1 V18A (Citrus sinensis, UniProt A0A067GV78, V18A).
T2 construct: gene CISIN_1g024065mg; recombinant CsMES1 (KDO79352) from pET28a in E. coli
T2 sequence (A0A067GV78 1-267 V18A): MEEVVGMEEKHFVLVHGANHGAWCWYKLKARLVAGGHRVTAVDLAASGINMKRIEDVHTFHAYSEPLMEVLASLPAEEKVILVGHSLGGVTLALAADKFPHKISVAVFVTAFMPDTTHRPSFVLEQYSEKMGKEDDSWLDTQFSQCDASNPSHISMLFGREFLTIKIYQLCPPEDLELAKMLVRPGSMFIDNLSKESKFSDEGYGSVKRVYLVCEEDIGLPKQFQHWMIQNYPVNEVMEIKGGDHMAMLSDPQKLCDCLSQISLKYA
Briefly: biochemical. Format: binding.

The next data set addresses T3, CsMES1 V18S (Citrus sinensis, UniProt A0A067GV78, V18S).
T3 construct: gene CISIN_1g024065mg; optimized CsMES1 V18S synthetic gene in pET28a, recombinant from E. coli
T3 sequence (A0A067GV78 1-267 V18S): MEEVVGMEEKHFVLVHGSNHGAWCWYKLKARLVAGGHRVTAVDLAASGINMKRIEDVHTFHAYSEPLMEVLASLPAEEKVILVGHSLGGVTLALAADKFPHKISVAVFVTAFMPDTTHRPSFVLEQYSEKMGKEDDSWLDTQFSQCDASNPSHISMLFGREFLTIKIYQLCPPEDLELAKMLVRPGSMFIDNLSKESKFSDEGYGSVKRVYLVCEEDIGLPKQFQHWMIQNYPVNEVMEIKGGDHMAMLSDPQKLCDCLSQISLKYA
Briefly: biochemical. The data set is classed as binding.

For data set [1], the target named is Citrus sinensis salicylate methylesterase CsMES1 (recombinant, wild type) (Citrus sinensis). In words: SEC; analytical gel filtration on Superdex 75 10/300 in SEC buffer (137 mM NaCl, 10 mM Na2HPO4, 2.7 mM KCl, 2 mM KH2PO4, pH 7.5); mass estimated from standards (bovine serum albumin, ovalbumin, lysozyme).
Substrate in data set [2]: COC(=O)c1ccccc1O
Briefly: MeSA esterase kinetics, SA fluorescence (Km). The data set is classed as biochemical, Citrus sinensis. The note with it: active site.

Broadly, the Kd is the free concentration of one partner at which half of the binding sites on the other are occupied at equilibrium, for simple one-to-one binding. A low value points to higher affinity. For the molecule `O=C(c1ccccc1)C(F)(F)F` [TriFA, 2,2,2-Trifluoroacetophenone], the values for the Kd at CsMES1, at CsMES1 V18A and on CsMES1 V18S were 7100 nM, about 300 nM and about 300 nM, respectively.
In general, stoichiometry N refers to the number of molecules, sites or subunits per partner or assembly. In the case of “Citrus sinensis salicylate methylesterase CsMES1 (recombinant, wild type) (enzyme)”, the stoichiometry N in data set [1] is 2.

B1: CsMES1 (Citrus sinensis) (protein)
chain: MEEVVGMEEKHFVLVHGVNHGAWCWYKLKARLVAGGHRVTAVDLAASGINMKRIEDVHTFHAYSEPLMEVLASLPAEEKVILVGHSLGGVTLALAADKFPHKISVAVFVTAFMPDTTHRPSFVLEQYSEKMGKEDDSWLDTQFSQCDASNPSHISMLFGREFLTIKIYQLCPPEDLELAKMLVRPGSMFIDNLSKESKFSDEGYGSVKRVYLVCEEDIGLPKQFQHWMIQNYPVNEVMEIKGGDHMAMLSDPQKLCDCLSQISLKYA
notes: recombinant CsMES1 (KDO79352) from pET28a in E. coli
A word on the Km: it is the substrate concentration at which the rate is half of its maximum. A word on the kcat: it is the number of substrate molecules converted per active site and unit of time at saturation. Turning to B1, in data set [2], the Km was found to be 48.9 ± 15.63 µM and the kcat is 0.38 ± 0.06 s⁻¹.

B2: CsMES1 V18S (Citrus sinensis; V18S) (protein)
chain: MEEVVGMEEKHFVLVHGSNHGAWCWYKLKARLVAGGHRVTAVDLAASGINMKRIEDVHTFHAYSEPLMEVLASLPAEEKVILVGHSLGGVTLALAADKFPHKISVAVFVTAFMPDTTHRPSFVLEQYSEKMGKEDDSWLDTQFSQCDASNPSHISMLFGREFLTIKIYQLCPPEDLELAKMLVRPGSMFIDNLSKESKFSDEGYGSVKRVYLVCEEDIGLPKQFQHWMIQNYPVNEVMEIKGGDHMAMLSDPQKLCDCLSQISLKYA
notes: optimized CsMES1 V18S synthetic gene in pET28a, recombinant from E. coli
With B2, the Km in data set [2] stood at 16.1 ± 0.23 µM.

B3: CsMES1 V18A (Citrus sinensis; V18A) (protein)
chain: MEEVVGMEEKHFVLVHGANHGAWCWYKLKARLVAGGHRVTAVDLAASGINMKRIEDVHTFHAYSEPLMEVLASLPAEEKVILVGHSLGGVTLALAADKFPHKISVAVFVTAFMPDTTHRPSFVLEQYSEKMGKEDDSWLDTQFSQCDASNPSHISMLFGREFLTIKIYQLCPPEDLELAKMLVRPGSMFIDNLSKESKFSDEGYGSVKRVYLVCEEDIGLPKQFQHWMIQNYPVNEVMEIKGGDHMAMLSDPQKLCDCLSQISLKYA
notes: as for B1
As for B3, the Km in data set [2] is 11.7 ± 0.97 µM.
